B1: Mothers against decapentaplegic homolog 4 (Homo sapiens), Q13485 (parent)
chain: MDNMSITNTPTSNDACLSIVHSLMCHRQGGESETFAKRAIESLVKKLKEKKDELDSLITAITTNGAHPSKCVTIQRTLDGRLQVAGRKGFPHVIYARLWRWPDLHKNELKHVKYCQYAFDLKCDSVCVNPYHYERVVSPGIDLSGLTLQSNAPSSMMVKDEYVHDFEGQPSLSTEGHSIQTIQHPPSNRASTETYSTPALLAPSESNATSTANFPNIPVASTSQPASILGGSHSEGLLQIASGPQPGQQQNGFTGQPATYHHNSTTTWTGSRTAPYTPNLPHHQNGHLQHHPPMPPHPGHYWPVHNELAFQPPISNHPAPEYWCSIAYFEMDVQVGETFKVPSSCPIVTVDGYVDPSGGDRFCLGQLSNVHRTEAIERARLHIGKGVQLECKGEGDVWVRCLSDHAVFVQSYYLDREAGRAPGDAVHKIYPSAYIKVFDLRQCHRQMQQQAATAQAAAAAQAAAVAGNIPGPGSVGGIAPAISLSAAAGIGVDDLRRLCILRMSFVKGWGPDYPRQSIKETPCWIEIHLHRALQLLDEVLHTMPIADPQPLD
partner: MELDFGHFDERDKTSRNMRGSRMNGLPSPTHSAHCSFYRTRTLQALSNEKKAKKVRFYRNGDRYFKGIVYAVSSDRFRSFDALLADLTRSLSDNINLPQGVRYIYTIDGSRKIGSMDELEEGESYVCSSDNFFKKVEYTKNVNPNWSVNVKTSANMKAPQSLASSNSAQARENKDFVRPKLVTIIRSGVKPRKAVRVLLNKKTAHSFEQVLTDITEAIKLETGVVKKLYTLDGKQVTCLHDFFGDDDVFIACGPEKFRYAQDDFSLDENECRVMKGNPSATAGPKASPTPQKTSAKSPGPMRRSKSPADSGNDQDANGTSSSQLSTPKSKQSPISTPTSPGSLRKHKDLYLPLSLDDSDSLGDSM
B2: Mothers against decapentaplegic homolog 4 (Homo sapiens), Q13485 (parent)
chain: B1 chain
partner: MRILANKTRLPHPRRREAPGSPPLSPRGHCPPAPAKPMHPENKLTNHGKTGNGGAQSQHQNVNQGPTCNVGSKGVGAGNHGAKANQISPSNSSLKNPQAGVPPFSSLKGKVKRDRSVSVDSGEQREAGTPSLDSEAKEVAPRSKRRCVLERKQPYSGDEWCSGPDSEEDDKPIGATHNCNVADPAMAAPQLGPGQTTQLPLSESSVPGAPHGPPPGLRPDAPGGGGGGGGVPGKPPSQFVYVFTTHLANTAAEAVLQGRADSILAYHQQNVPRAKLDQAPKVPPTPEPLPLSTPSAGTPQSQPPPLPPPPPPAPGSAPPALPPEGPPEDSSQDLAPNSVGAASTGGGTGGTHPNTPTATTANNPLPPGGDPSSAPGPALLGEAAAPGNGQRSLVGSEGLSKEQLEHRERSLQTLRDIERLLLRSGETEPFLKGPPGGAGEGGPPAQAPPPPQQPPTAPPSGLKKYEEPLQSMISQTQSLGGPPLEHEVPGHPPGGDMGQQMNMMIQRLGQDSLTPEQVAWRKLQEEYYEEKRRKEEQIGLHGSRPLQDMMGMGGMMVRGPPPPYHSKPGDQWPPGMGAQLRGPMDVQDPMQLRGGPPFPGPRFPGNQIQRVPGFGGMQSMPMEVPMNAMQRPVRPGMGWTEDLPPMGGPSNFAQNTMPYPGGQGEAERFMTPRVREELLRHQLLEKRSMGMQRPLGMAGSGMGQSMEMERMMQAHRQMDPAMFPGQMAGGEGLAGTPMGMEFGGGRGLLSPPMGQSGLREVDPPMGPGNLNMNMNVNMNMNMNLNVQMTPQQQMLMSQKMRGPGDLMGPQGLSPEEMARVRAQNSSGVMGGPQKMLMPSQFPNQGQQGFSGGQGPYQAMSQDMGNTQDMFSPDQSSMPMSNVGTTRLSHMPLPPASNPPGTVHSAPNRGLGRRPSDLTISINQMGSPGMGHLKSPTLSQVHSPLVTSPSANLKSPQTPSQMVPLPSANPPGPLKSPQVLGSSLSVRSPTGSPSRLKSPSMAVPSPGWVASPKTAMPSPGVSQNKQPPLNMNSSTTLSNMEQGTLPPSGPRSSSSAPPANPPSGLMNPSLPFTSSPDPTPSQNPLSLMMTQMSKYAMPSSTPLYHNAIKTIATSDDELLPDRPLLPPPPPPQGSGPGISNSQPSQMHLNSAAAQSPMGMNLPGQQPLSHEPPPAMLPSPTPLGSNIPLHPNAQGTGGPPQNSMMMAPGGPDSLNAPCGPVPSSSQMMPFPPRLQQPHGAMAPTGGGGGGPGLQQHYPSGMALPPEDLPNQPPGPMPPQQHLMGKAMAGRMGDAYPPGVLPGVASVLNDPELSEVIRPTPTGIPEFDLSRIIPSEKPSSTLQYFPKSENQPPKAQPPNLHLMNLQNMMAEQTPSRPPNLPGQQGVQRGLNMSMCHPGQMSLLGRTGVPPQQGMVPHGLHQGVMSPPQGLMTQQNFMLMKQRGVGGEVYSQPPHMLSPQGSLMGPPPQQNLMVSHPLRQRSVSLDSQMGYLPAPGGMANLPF
B3: Mothers against decapentaplegic homolog 4 (Homo sapiens), Q13485 (parent)
chain: B1 chain
partner: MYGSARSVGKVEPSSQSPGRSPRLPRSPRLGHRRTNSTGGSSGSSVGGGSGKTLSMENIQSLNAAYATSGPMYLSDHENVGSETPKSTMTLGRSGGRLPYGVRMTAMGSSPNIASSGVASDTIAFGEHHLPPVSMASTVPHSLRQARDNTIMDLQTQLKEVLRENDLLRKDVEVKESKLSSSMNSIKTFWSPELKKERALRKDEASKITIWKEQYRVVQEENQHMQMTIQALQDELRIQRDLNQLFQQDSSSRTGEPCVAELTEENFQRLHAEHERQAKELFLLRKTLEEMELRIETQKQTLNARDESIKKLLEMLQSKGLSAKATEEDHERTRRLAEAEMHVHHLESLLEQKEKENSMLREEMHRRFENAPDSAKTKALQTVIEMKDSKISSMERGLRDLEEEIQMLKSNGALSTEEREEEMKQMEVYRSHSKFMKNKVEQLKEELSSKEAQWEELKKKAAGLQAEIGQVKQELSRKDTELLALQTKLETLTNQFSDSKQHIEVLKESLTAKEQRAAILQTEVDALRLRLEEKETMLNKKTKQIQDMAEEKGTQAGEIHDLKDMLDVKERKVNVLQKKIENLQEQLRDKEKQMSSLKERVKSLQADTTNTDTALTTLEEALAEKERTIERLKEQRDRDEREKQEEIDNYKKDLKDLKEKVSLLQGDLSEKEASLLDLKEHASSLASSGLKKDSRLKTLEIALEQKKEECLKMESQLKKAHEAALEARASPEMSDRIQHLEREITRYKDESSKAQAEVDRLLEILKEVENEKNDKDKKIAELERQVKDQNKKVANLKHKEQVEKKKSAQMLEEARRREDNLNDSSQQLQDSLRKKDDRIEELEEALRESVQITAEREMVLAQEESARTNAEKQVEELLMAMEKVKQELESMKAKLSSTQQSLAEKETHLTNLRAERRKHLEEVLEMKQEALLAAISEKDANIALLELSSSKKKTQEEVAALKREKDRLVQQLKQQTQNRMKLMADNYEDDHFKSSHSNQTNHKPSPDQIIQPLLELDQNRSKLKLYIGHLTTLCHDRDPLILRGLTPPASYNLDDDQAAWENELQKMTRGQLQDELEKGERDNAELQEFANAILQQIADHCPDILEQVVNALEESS
B4: Mothers against decapentaplegic homolog 4 (Homo sapiens), Q13485 (parent)
chain: B1 chain
partner: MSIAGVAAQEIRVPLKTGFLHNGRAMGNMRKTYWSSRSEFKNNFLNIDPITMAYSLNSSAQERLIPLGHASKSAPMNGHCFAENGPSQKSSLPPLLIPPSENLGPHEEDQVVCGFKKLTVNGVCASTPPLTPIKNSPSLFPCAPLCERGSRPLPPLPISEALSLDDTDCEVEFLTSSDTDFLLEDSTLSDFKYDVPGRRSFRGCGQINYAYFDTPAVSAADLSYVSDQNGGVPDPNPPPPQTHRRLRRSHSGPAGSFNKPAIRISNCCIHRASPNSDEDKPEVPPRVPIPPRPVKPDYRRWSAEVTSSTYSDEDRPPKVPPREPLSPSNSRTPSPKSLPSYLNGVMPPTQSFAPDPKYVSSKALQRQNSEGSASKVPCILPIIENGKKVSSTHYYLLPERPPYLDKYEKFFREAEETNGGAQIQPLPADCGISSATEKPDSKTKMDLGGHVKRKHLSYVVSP
B5: Mothers against decapentaplegic homolog 4 (Homo sapiens), Q13485 (parent)
chain: B1 chain
partner: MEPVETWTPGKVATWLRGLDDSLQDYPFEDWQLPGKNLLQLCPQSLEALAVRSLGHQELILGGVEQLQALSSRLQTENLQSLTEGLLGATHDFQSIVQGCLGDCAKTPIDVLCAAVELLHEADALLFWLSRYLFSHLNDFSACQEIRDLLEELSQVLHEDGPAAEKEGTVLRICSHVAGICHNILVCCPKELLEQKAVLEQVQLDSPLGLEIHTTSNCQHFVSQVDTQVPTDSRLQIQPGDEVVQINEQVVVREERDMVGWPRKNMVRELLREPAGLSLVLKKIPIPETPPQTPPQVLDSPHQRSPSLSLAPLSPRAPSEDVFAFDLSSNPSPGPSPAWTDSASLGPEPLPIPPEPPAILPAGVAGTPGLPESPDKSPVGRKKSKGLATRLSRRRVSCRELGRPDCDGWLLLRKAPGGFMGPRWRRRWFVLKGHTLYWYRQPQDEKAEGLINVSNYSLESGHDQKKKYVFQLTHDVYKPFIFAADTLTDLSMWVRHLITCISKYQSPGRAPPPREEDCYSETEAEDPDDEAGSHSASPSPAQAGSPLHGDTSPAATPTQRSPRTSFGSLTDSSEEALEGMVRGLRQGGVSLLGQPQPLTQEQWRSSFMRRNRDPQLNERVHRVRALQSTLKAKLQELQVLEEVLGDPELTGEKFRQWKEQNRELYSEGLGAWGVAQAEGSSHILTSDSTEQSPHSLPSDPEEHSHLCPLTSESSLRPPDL
B6: Mothers against decapentaplegic homolog 4 (Homo sapiens), Q13485 (parent)
chain: B1 chain
partner: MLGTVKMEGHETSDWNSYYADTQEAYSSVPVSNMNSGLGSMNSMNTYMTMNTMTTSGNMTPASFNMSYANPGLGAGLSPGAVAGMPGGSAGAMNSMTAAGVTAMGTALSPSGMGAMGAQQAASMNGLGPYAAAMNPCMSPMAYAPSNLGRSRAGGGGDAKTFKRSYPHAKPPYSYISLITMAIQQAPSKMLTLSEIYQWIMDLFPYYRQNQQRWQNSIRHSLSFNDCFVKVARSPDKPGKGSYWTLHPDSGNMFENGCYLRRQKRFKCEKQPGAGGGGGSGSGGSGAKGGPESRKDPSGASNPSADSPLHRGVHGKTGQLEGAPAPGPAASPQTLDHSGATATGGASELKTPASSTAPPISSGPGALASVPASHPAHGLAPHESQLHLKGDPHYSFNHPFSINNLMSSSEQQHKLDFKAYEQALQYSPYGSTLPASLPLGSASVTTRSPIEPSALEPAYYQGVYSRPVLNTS

Variants of: B1
Details: with dcx_human DCX

effect of a mutation on the interaction | Variant
with no effect | G386D

Variants of: B1
Details: with dcx_human DCX
Remark: another data set of the same source

effect of a mutation on the interaction | Variant
with no effect | D351H

Variants of: B1
Details: with dcx_human DCX
Remark: another data set of the same source

effect of a mutation on the interaction | Variant
with no effect | R361H

Variants of: B1
Details: with dcx_human DCX
Remark: another data set of the same source

effect of a mutation on the interaction | Variant
with no effect | R361C

Variants of: B2
Details: with bcl9l_human BCL9L

effect of a mutation on the interaction | Variant
with no effect | R361H

Variants of: B2
Details: with bcl9l_human BCL9L
Remark: another data set of the same source

effect of a mutation on the interaction | Variant
with no effect | R361C

Variants of: B2
Details: with bcl9l_human BCL9L
Remark: another data set of the same source

effect of a mutation on the interaction | Variant
with no effect | G386D

Variants of: B2
Details: with bcl9l_human BCL9L
Remark: another data set of the same source

effect of a mutation on the interaction | Variant
with no effect | D351H

Variants of: B3
Details: with rb6i2_human ERC1, Q8IUD2

effect of a mutation on the interaction | Variant
with no effect | D351H

Variants of: B3
Details: with rb6i2_human ERC1, Q8IUD2
Remark: another data set of the same source

effect of a mutation on the interaction | Variant
with no effect | R361H

Variants of: B3
Details: with rb6i2_human ERC1, Q8IUD2
Remark: another data set of the same source

effect of a mutation on the interaction | Variant
with no effect | R361C

Variants of: B3
Details: with rb6i2_human ERC1, Q8IUD2
Remark: another data set of the same source

effect of a mutation on the interaction | Variant
with no effect | G386D

Variants of: B4
Details: with errfi_human ERRFI1, Q9UJM3

effect of a mutation on the interaction | Variant
with no effect | D351H

Variants of: B4
Details: with errfi_human ERRFI1, Q9UJM3
Remark: another data set of the same source

effect of a mutation on the interaction | Variant
with no effect | R361H

Variants of: B4
Details: with errfi_human ERRFI1, Q9UJM3
Remark: another data set of the same source

effect of a mutation on the interaction | Variant
with no effect | R361C

Variants of: B4
Details: with errfi_human ERRFI1, Q9UJM3
Remark: another data set of the same source

effect of a mutation on the interaction | Variant
with no effect | G386D

Variants of: B5
Details: with cnkr1_human CNKSR1, Q969H4

effect of a mutation on the interaction | Variant
with no effect | G386D

Variants of: B5
Details: with cnkr1_human CNKSR1, Q969H4
Remark: another data set of the same source

effect of a mutation on the interaction | Variant
with no effect | R361H

Variants of: B5
Details: with cnkr1_human CNKSR1, Q969H4
Remark: another data set of the same source

effect of a mutation on the interaction | Variant
with no effect | R361C

Variants of: B5
Details: with cnkr1_human CNKSR1, Q969H4
Remark: another data set of the same source

effect of a mutation on the interaction | Variant
with no effect | D351H

Variants of: B6
Details: with foxa1_human FOXA1, P55317

effect of a mutation on the interaction | Variant
with no effect | R361C

Variants of: B6
Details: with foxa1_human FOXA1, P55317
Remark: another data set of the same source

effect of a mutation on the interaction | Variant
with no effect | R361H

Variants of: B6
Details: with foxa1_human FOXA1, P55317
Remark: another data set of the same source

effect of a mutation on the interaction | Variant
with no effect | D351H

Variants of: B6
Details: with foxa1_human FOXA1, P55317
Remark: another data set of the same source

effect of a mutation on the interaction | Variant
with no effect | G386D

Source: IntAct's records for PubMed 35512704
